Results: publication PMC5659210, “Extending the biocatalytic scope of regiocomplementary flavin-dependent halogenase enzymes” (Chemical Science, 2015)

test system: Nc1ccccc1C(=O)O; test: Michaelis-Menten chlorination assay, HPLC, Fre-coupled; type: biochemical, Pseudomonas fluorescens; settings: Fre in excess, 30 °C
From the text: Michaelis-Menten chlorination assay, HPLC, Fre-coupled on PrnA

Substance | Km [µM] | kcat [s⁻¹] | kcat/Km [M⁻¹ s⁻¹]
PrnA (Pseudomonas fluorescens; E450K) | 384 ± 93 | 0.0155 ± 0.000833 | 40 ± 10
PrnA (Pseudomonas fluorescens; E450K/F454K) | 205 ± 16 | 0.0303 ± 0.000667 | 148 ± 11.7
PrnA (Pseudomonas fluorescens; E450K/F454R) | 378 ± 59 | 0.0212 ± 0.00117 | 56.7 ± 10
PrnA (Pseudomonas fluorescens; F454K) | 3628 ± 1108 | 0.061 ± 0.0112 | 16.7 ± 6.67
